Experimental data reported in US20200017880A1.

Columns and labels:
[1] = target: CD28 on cells (PBMCs, T responder cells) (human) (UniProt P10747); experiment: flow cytometry; Fab monomers remaining on the liberated CD28+ cells after D-biotin and washing, detected with an antibody against the immunoglobulin kappa light chain
[2] = target: CD3 on Jurkat cells and on PBMCs (UniProt P07766); experiment: flow cytometry; second Fab-multimer staining of PBMCs that had been stained reversibly, treated with D-biotin and washed (control panel, far right)
UniProt P07766, sequence (P07766 23-207): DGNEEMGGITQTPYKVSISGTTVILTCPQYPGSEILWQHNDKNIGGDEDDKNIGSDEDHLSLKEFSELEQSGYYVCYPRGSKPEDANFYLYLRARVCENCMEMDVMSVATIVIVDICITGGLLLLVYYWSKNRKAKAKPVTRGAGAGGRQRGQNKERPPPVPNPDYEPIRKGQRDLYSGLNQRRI

“anti-CD28 Fab fragment derived from antibody CD28.3, heavy chain C-terminally fused to Twin-Strep-tag (monomeric Fab)” gave a % of cells within gate [1] of 5.91%.

“OKT3 Fab fragments multimerized by reversible binding to soluble Strep-Tactin conjugated with phycoerythrin” was tested, and the % of cells within gate [2] was 64.7%.
